These results are taken from patent US20120021995A1 (published 2012).

The chains are these.
B1: 064-40.1C7 (designed binder)
chain: ALQTVCLKGTKVHMKCFLAFTQTKTFHEASEDCISRGGTLSTPQTGSENDALYEYLRQSVGNEAEIWLGLNGWLEGVGWVDMTGARIAYKNWETEITAQPDGGGGVRWENCAVLSGAANGKWFDKRCRDQLPYICQFGIV
notes: on phage
B2: 029-61.1A5 (designed binder)
chain: ALQTVCLKGTKVHMKCFLAFTQTKTFHEASEDCISRGGTLSTPQTGSENDALYEYLRQSVGNEAEIWLGLNGWLMGTGWVDMTGARIAYKNWETEITAQPDGGWWNRWENCAVLSGAANGKWFDKRCRDQLPYICQFGIV
notes: on phage
B3: 029-62.7D10 (designed binder)
chain: ALQTVCLKGTKVHMKCFLAFTQTKTFHEASEDCISRGGTLSTPQTGSENDALYEYLRQSVGNEAEIWLGLNGLARQQGWVDMTGARIAYKNWETEITAQPDGGKGRPRENCAVLSGAANGKWFDKRCRDQLPYICQFGIV
notes: on phage
B4: 014-40.3B2 (designed binder)
chain: ALQTVCLKGTKVHMKCFLAFTQTKTFHEASEDCISRGGTLSTPQTGSENDALYEYLRQSVGNEAEIWLGLNGYIEGTGWVDMTGARIAYKNWETEITAQPDGGSNWAWENCAVLSGAANGKWFDKRCRDQLPYICQFGIV
notes: on phage
B5: 029-62.4F5 (designed binder)
chain: ALQTVCLKGTKVHMKCFLAFTQTKTFHEASEDCISRGGTLSTPQTGSENDALYEYLRQSVGNEAEIWLGLNIQCSPPLWVDMTGARIAYKNWETEITAQPDGGAVQQQENCAVLSGAANGKWFDKRCRDQLPYICQFGIV
notes: on phage
B6: 014-42.3D9 (designed binder)
chain: ALQTVCLKGTKVHMKCFLAFTQTKTFHEASEDCISRGGTLSTPQTGSENDALYEYLRQSVGNEAEIWLGLNGYLAGVGWVDMTGARIAYKNWETEITAQPDGGRGFRWENCAVLSGAANGKWFDKRCRDQLPYICQFGIV
notes: on phage
B7: 029-62.2B3 (designed binder)
chain: ALQTVCLKGTKVHMKCFLAFTQTKTFHEASEDCISRGGTLSTPQTGSENDALYEYLRQSVGNEAEIWLGLNRYHVQALWVDMTGARIAYKNWETEITAQPDGGRVRPRENCAVLSGAANGKWFDKRCRDQLPYICQFGIV
notes: on phage
B8: 014-40.3E11 (designed binder)
chain: ALQTVCLKGTKVHMKCFLAFTQTKTFHEASEDCISRGGTLSTPQTGSENDALYEYLRQSVGNEAEIWLGLNGYLAGYGWVDMTGARIAYKNWETEITAQPDGGPSIWRENCAVLSGAANGKWFDKRCRDQLPYICQFGIV
notes: on phage
B9: 014-40.3A3 (designed binder)
chain: ALQTVCLKGTKVHMKCFLAFTQTKTFHEASEDCISRGGTLSTPQTGSENDALYEYLRQSVGNEAEIWLGLNGFMVGRGWVDMTGARIAYKNWETEITAQPDGGSMWPWENCAVLSGAANGKWFDKRCRDQLPYICQFGIV
notes: on phage
B10: 064-21.1A5 (designed binder)
chain: ALQTVCLKGTKVHMKCFLAFTQTKTFHEASEDCISRGGTLSTPQTGSENDALYEYLRQSVGNEAEIWLGLNGFLQGNGWVDMTGARIAYKNWETEITAQPDGGMWDRWENCAVLSGAANGKWFDKRCRDQLPYICQFGIV
notes: on phage
B11: 014-42.3G8 (designed binder)
chain: ALQTVCLKGTKVHMKCFLAFTQTKTFHEASEDCISRGGTLSTPQTGSENDALYEYLRQSVGNEAEIWLGLNGWLQGVGWVDMTGARIAYKNWETEITAQPDGGRGWPWENCAVLSGAANGKWFDKRCRDQLPYICQFGIV
notes: on phage
B12: 014-40.3H2 (designed binder)
chain: ALQTVCLKGTKVHMKCFLAFTQTKTFHEASEDCISRGGTLSTPQTGSENDALYEYLRQSVGNEAEIWLGLNMVTRPPYWVDMTGARIAYKNWETEITAQPDGGWVMSFENCAVLSGAANGKWFDKRCRDQLPYICQFGIV
notes: on phage
B13: 064-36.1E1 (designed binder)
chain: ALQTVCLKGTKVHMKCFLAFTQTKTFHEASEDCISRGGTLSTPQTGSENDALYEYLRQSVGNEAEIWLGLNIWPLRFRWVDMTGARIAYKNWETEITAQPDGGFVTRKENCAVLSGAANGKWFDKRCRDQLPYICQFGIV
notes: on phage
B14: 064-36.1B7 (designed binder)
chain: ALQTVCLKGTKVHMKCFLAFTQTKTFHEASEDCISRGGTLSTPQTGSENDALYEYLRQSVGNEAEIWLGLNGWMAGVGWVDMTGARIAYKNWETEITAQPDGGRRLPWENCAVLSGAANGKWFDKRCRDQLPYICQFGIV
notes: on phage
B15: 014-40.3B3 (designed binder)
chain: ALQTVCLKGTKVHMKCFLAFTQTKTFHEASEDCISRGGTLSTPQTGSENDALYEYLRQSVGNEAEIWLGLNGYMSGYGWVDMTGARIAYKNWETEITAQPDGGMMARWENCAVLSGAANGKWFDKRCRDQLPYICQFGIV
notes: on phage
B16: 029-62.2C5 (designed binder)
chain: ALQTVCLKGTKVHMKCFLAFTQTKTFHEASEDCISRGGTLSTPQTGSENDALYEYLRQSVGNEAEIWLGLNVRRMGFHWVDMTGARIAYKNWETEITAQPDGGRVAVGENCAVLSGAANGKWFDKRCRDQLPYICQFGIV
notes: on phage
B17: 014-42.3C7 (designed binder)
chain: ALQTVCLKGTKVHMKCFLAFTQTKTFHEASEDCISRGGTLSTPQTGSENDALYEYLRQSVGNEAEIWLGLNGWLEGYGWVDMTGARIAYKNWETEITAQPDGGTWWEWENCAVLSGAANGKWFDKRCRDQLPYICQFGIV
notes: on phage
B18: 064-36.1D7 (designed binder)
chain: ALQTVCLKGTKVHMKCFLAFTQTKTFHEASEDCISRGGTLSTPQTGSENDALYEYLRQSVGNEAEIWLGLNVRHWLQLWVDMTGARIAYKNWETEITAQPDGGGWWKGENCAVLSGAANGKWFDKRCRDQLPYICQFGIV
notes: on phage
B19: 064-36.1E10 (designed binder)
chain: ALQTVCLKGTKVHMKCFLAFTQTKTFHEASEDCISRGGTLSTPQTGSENDALYEYLRQSVGNEAEIWLGLNGFLAGVGWVDMTGARIAYKNWETEITAQPDGGWWTRWENCAVLSGAANGKWFDKRCRDQLPYICQFGIV
notes: on phage
B20: 064-36.1E4 (designed binder)
chain: ALQTVCLKGTKVHMKCFLAFTQTKTFHEASEDCISRGGTLSTPQTGSENDALYEYLRQSVGNEAEIWLGLNVLRLAWSWVDMTGARIAYKNWETEITAQPDGGKRNGCENCAVLSGAANGKWFDKRCRDQLPYICQFGIV
notes: on phage
B21: 014-40.3E9 (designed binder)
chain: ALQTVCLKGTKVHMKCFLAFTQTKTFHEASEDCISRGGTLSTPQTGSENDALYEYLRQSVGNEAEIWLGLNPFRVPQWWVDMTGARIAYKNWETEITAQPDGGYGPVQENCAVLSGAANGKWFDKRCRDQLPYICQFGIV
notes: on phage

This test deals with T1, recombinant human TRAIL R1 (DR4)/Fc chimera (human, UniProt O00220 24-239).
T1 construct: bought (R&D Systems); not shown: Fc of the bought chimera (R&D Systems)
T1 sequence: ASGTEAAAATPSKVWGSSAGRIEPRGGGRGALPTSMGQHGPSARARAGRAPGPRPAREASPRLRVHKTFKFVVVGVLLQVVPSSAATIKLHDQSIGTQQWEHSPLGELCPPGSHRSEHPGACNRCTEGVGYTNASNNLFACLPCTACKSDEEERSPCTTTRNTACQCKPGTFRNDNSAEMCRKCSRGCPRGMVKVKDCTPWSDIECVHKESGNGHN
In words: phage ELISA on DR4/Fc. The method, then:
The remaining overnight culture was used to make a master stock plate by adding 100 μL of 50% glycerol to each well and storing at −80° C. The replica culture plate was grown at 37° C. with shaking at 250 rpm for approximately 2 hrs until the OD₆₀₀ was 0.5-0.7. The wells were then infected with K07 helper phage to 5×10⁹ pfu/mL mixed and incubated at 37° C. for 30 minutes without shaking, then incubated an addition 30 minutes at 37° C. with shaking at 250 rpm. The cultures were then spun down at 2500 rpm and 4° C. for 20 minutes. The supernatants were removed from the wells and the bacterial cell pellets were re-suspended in 500 μL of 2xYT containing 50 μg/mL carbenicillin and 50 μg/mL kanamycin. An air-permeable membrane was placed on the culture block and cells were grown overnight at room temperature with shaking at 250 rpm.
On day 3, cultures were spun down and supernatants containing the phage were blocked with 3% milk/PBS for 1 hr at room temperature. An initial Phage ELISA was performed using 75-100 ng of antigen bound per well. Non-specific binding was measured using 75-100 ng of human IgG1 Fc per well. DR4/Fc antigen (R&D Systems)-coated wells and IgG Fc coated wells were prepared fresh the night before by binding the above amount of antigen diluted in 100 μL of PBS per well. Antigen plates were incubated overnight at 4° C. then for 1 hour at 37° C., washed twice with PBS/0.05% Tween 20 and twice with PBS, and then blocked with 3% milk/PBS for 1 hr at 37° C. prior to the ELISA. Blocked phage were bound to blocked antigen-bound plates for 1 hr then washed twice with 0.05% Tween 20/PBS and then twice more with PBS. A HRP-conjugated anti-M13 secondary antibody diluted in 3% milk/PBS was then applied, with binding for 1 hr and washing as described above. The ELISA signal was developed using 90 μL TMB substrate mix and then stopped with 90 μL 0.2 M sulfuric acid, then ELISA plates were read at 450 nm. […] Secondary ELISA screens were performed similarly to the protocol detailed above.
With B1, the binding result is on record as “binds”. Under B2 stands “binds”; under B3, “binds”; under B4, “binds”. For B5, the binding result was “binds”. Turning to B6, the binding result is reported as “binds”.

As for B7, the binding result is on record as “binds”. On to B8, for which the binding result was “binds”. Take B9: the binding result was “binds”. For the molecule B10, the binding result is on record as “binds”. Under B11 stands “binds”; under B12, “binds”. For the molecule B13, the binding result was “binds”. As for B14, the binding result was “binds”. As to B15, the binding result was “binds”. Take B16: the binding result was “binds”. As to B17, the binding result was “binds”.

Take B18: the binding result is recorded as “binds”. Turning to B19, the binding result was “binds”. Turning to B20, the binding result is reported as “binds”.

As for B21, the binding result is listed as “binds”.
